Patent US20050228169A1 (published 2005)

Biological target: T1, GST-syntaxin-1a (1-266AA) (human, UniProt P08515 1-218 = GST; Q16623 1-266)
T1 construct: Expressed in E. coli DH5a and purified on glutathione-Sepharose; also called GST-syntaxin-1a fused protein; syntaxin-1a-GST
Test: GST pull-down: GST-syntaxin-1a (17 µg) on glutathione-Sepharose, 16 hours at 4° C.; Western blot with anti-penta His antibody
Description: KIAA1006 polypeptide (the histidine-tagged KIAA1006 polypeptide described above) and its C-terminal truncated product (the histidine-tagged C-terminal truncation product of KIAA1006 polypeptide described above) purified with a cobalt resin were respectively mixed with glutathione-Sepharose (bed volume 10 μl) to which GST (17 μg) was bound, stirred for 6 hours at 4° C., and then centrifuged. The obtained supernatants (GST-glutathione-Sepharose unadsorbed fractions) were respectively added to glutathione-Sepharose (bed volume 10 μl) to which GST-syntaxin-1a (17 μg) was bound, and after stirring for 16 hours at 4° C., the resultants were subjected to centrifugation. The fractions adsorbed to GST-glutathione-Sepharose and the fractions adsorbed to GST-syntaxin-1a-glutathione-Sepharose were eluted with SDS-PAGE sample buffer, respectively, and the binding of syntaxin-1a to KIAA1006 polypeptide or to its C-terminal truncation product was analyzed by Western blotting using anti-penta His antibody (Qiagen).
For the SDS-PAGE, 4-12% Bis-Tris Gel (NOVEX) was used. The detection of a secondary antibody that was labeled with horseradish peroxidase was carried out using ECL Western blotting detection reagents (Amersham Pharmacia Biotech).

T1 sequence (P08515 1-218, tags or fused parts left off): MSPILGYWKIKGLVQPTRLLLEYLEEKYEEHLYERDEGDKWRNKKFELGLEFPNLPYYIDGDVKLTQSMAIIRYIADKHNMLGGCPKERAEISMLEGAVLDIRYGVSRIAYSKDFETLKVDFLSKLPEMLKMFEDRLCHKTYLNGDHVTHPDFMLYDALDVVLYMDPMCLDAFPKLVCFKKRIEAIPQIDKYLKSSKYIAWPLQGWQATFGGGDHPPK

B1: histidine-tagged KIAA1006 C-terminal truncated polypeptide (1-1157AA) (other)
chain: HHHHHHMKKFNFRKVLDGLTASSPGSGSSSGSNSGGGAGSGSVHPAGTAGVLREEIQETLTSEYFQICKTVRHGFPHQPTALAFDPVQKILAIGTRTGAIRILGRPGVDCYCQHESGAAVLQLQFLINEGALVSASSDDTLHLWNLRQKRPAILHSLKFNRERITYCHLPFQSKWLYVGTERGNTHIVNIESFILSGYVIMWNKAIELSTKTHPGPVVHLSDSPRDEGKLLIGYENGTVVFWDLKSKRAELRVYYDEAIHSIDWHHEGKQFMCSHSDGSLTLWNLKSPSRPFQTTIPHGKSQREGRKSESCKPILKVEYKTCKNSEPFIIFSGGLSYDKACRRPSLTIMHGKAITVLEMDHPIVEFLTLCETPYPNEFQEPYAVVVLLEKDLIVVDLTQSNFPIFENPYPMDIHESPVTCTAYFADCPPDLILVLYSIGVKHKKQGYSNKEWPISGGAWNLGAQTYPEIIITGHADGSIKFWDASAITLQMLYKLKTSKVFEKQKVGEGKQTCEIVEEDPFAIQMIYWCPESRIFCVSGVSAYVIIYKFSRHEITTEIVSLEVRLQYDVEDIITPEPETSPPFPDLSAQLPSSRSLSGSTNTVASEGVTKDSIPCLNVKTRPVRMPPGYQAELVIQLVWVDGEPPQQITSLAVSSAYGIVAFGNCNGLAVVDFIQKTVLLSMGTIDLYRSSDLYQRQPRSPRKNKQFIADNFCMRGLSNFYPDLTKRIRTSYQSLTELNDSPVPLELERCKSPTSDHVNGHCTSPTSQSCSSGKRLSSADVSKVNRWGPGRPPFRKAQSAACMEISLPVTTEENRENSYNRSRSSSISSIDKDSKEAITALYFMDSFARKNDSTISPCLFVGTSLGMVLIISLNLPLADEQRFTEPVMVLPSGTFLSLKGAVLTFSCMDRMGGLMQPPYEVWRDPNNIDENEKSWRRKVVMNSSSASQEIGDHQYTIICSEKQAKVFSLPSQTCLYVHNITETSFILQANVVVMCSSACLACFCANGHIMIMSLPSLRPMLDVNYLPLTDMRIARTFCFTNEGQALYLVSPTEIQRLTYSQEMCDNLQDMLGDLFTPIETPEAQNRGFLKGLFGGSGQTFDREELFGEASAGKASRSLAQHIPGPGSIEGMKGAAGGVMGELTRARIALDERGQRLGELEEKT
notes: Expressed in sf9 insect cells by baculovirus and purified on cobalt resin; The junction of the tag is as noted for m1; also called C-terminal truncated product; C-terminal truncation product of KIAA1006 polypeptide
B1: no binding.
